Numbering of substitutions follows the chain as printed.
B1: anti-CNTN4 humanized antibody LAH2 (antibody, V domains shown)
VH: EVQLLESEGGLVQPGGSLRLSCAASGFTFSSFNMFWVRQAPGKGLEWVAEISGGGGSTWYAPAVKGRATISRDNSKNTVYLQMNSLRAEDTAVYYCAKSADTWSYGAATIDAWGQGTLVTVSS
VL: ALTQPSSVSANLGETVKITCSGSSGSYGWYQQKSPGSAPVTLIYDNTNRPSDIPSRFSGSGSGSTGTLTITGVRAEDEAVYYCGGYDGSTDVFGAGTTLTVL
notes: in the form of IgG4
B2: anti-CNTN4 humanized antibody L1H2 (antibody, V domains shown)
VH: B1 VH
VL: ELTQDPAVSVALGQTVRITCSGSSGSYGWYQQKPGQAPVLVIYDNTNRPSGIPDRFSGSSSGNTASLTITGAQAEDEADYYCGGYDGSTDVFGGGTKLTVL
notes: in the form of IgG4
B3: anti-CNTN4 humanized antibody L2H2 (antibody, V domains shown)
VH: B1 VH
VL: B2 VL with L40T, V41L, N63S, A65G
notes: in the form of IgG4

Columns and labels:
[1] = molecular target: T1, human CNTN4-10xHis (human, UniProt Q8IWV2 19-1000); assay: ELISA, plate coated with CNTN4-10xHis, anti-human Fc-HRP
T1 sequence: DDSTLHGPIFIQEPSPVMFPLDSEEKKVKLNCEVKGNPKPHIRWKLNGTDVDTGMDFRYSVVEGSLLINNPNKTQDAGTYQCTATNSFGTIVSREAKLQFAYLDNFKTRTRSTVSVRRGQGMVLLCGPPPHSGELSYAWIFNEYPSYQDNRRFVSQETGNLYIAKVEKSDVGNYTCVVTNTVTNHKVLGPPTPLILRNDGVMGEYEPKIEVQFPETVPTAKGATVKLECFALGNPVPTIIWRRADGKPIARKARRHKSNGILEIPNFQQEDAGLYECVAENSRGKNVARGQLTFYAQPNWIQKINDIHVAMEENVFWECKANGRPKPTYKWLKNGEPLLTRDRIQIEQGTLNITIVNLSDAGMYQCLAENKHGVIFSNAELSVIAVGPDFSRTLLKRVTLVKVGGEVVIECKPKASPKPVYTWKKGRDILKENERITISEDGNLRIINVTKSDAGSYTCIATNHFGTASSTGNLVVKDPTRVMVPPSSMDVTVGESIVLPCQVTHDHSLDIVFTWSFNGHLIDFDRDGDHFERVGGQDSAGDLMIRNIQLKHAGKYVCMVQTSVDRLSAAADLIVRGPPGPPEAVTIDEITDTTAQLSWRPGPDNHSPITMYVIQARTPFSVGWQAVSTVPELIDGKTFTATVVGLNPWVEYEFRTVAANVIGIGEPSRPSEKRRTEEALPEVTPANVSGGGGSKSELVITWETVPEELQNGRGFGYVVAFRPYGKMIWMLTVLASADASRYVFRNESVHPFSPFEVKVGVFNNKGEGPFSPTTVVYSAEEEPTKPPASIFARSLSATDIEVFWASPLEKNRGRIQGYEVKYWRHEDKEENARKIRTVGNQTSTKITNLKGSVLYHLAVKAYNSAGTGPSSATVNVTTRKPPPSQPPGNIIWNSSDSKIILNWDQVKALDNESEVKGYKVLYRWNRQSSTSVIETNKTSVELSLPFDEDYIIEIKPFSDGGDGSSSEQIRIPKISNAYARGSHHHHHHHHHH
Protocol: (§1) The LAH2, L1H2, and L2H2 antibodies prepared in Example 3.1 were subjected to an ELISA test together with A-01. An ELISA plate was coated with 200 ng of antigens (human CNTN4-10xHis or mouse CNTN4-10xHis). For antibody binding, antibodies were serially diluted from a maximum of 1 μM to 0.0001 nM, thereby binding to the antigen. Anti-human Fc-HRP was used as a secondary antibody for antibody detection. Color was developed using ABTS, which is a color developing reagent, and the absorbance at 405 nm was measured.

[2] = molecular target: T2, mouse CNTN4-10xHis (mouse, UniProt Q69Z26 19-1000); assay: as above
T2 sequence: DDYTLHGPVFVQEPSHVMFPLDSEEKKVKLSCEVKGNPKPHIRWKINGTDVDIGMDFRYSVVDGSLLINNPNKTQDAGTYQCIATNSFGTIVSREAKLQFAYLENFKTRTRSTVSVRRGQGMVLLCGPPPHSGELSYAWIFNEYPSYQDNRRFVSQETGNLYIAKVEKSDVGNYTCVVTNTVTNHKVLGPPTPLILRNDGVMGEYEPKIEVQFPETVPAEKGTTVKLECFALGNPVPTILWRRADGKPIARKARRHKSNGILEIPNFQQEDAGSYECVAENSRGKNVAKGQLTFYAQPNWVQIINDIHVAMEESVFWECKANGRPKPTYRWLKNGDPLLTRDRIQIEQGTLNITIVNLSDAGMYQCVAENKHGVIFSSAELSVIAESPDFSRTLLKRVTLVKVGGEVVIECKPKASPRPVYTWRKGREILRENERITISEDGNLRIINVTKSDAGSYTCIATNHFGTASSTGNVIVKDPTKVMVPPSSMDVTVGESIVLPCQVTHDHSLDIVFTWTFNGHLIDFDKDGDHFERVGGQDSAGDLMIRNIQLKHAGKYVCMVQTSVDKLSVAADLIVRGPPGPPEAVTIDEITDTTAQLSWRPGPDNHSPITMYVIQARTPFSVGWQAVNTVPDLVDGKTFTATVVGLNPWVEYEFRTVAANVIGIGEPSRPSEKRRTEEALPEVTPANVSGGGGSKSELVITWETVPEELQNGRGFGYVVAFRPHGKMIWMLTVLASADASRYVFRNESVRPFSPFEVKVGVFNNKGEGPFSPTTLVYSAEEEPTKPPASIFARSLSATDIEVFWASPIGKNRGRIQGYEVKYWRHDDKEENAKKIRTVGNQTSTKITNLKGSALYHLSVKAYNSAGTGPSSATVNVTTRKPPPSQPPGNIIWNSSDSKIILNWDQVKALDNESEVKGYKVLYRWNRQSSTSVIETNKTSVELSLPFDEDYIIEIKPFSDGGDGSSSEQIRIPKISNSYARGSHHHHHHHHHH
Protocol: as §1

[3] = molecular target: T3, Human CNTN-4 protein (human, UniProt Q8IWV2 19-1000, limits assumed); assay: SPR, antibody captured by anti-human IgG Fc on CM5 chip, CNTN4 as analyte
T3 construct: soluble antigen run over the captured antibody; also called human CNTN4 (SPR analyte)
T3 sequence (looked up): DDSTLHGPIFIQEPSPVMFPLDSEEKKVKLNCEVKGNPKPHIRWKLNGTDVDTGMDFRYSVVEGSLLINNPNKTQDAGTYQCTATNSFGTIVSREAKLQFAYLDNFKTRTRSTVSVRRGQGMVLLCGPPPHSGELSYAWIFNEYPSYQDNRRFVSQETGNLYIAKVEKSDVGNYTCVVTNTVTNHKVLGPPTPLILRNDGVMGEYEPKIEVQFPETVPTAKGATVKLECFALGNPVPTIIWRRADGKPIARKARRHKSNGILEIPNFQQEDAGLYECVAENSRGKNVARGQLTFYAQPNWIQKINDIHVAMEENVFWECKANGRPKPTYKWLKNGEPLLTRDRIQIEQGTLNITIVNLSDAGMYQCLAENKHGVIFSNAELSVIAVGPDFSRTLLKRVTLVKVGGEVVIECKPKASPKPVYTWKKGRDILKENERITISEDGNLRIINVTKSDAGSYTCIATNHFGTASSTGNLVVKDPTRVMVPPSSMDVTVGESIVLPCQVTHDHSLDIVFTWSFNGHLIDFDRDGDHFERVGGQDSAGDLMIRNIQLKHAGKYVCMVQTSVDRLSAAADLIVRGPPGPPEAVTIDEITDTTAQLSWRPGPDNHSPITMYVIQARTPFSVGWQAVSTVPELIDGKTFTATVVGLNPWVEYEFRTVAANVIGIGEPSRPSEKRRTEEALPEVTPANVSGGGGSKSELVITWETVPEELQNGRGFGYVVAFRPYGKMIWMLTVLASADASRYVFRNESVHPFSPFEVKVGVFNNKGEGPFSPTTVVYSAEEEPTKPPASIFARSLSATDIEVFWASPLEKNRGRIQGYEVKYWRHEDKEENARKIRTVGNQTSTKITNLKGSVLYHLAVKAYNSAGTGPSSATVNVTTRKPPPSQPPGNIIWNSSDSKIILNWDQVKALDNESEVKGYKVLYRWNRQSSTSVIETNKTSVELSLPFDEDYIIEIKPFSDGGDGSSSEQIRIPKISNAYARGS
Protocol: An SPR test was performed on L1H2, which is most humanized at about 98%, among the antibodies prepared in Example 3.1. More specifically, in order to bind anti-human IgG Fc (capture antibody) using amine coupling, CM5 chip was mounted, running buffer was allowed to flow, the chip was activated, and then capture antibody was attached thereto. Dextrin to which capture antibody was not attached was deactivated using ethanolamine, and then regeneration was performed using 3M magnesium chloride to clear analyte except capture antibody. The L1H2 prepared at a concentration of 0.05 μg/mL was allowed to flow for 30 seconds at a rate of 10 μL/min for binding. Thereafter, human CNTN4 (400 nM to 0.78 nM) prepared by sequential dilution as an antigen was allowed to flow at a rate of 30 μL/min for 3 minutes to be bound, and dissociation was performed for 5 minutes. Then, in order to clear all analytes attached to the capture antibody, a regeneration solution (3M magnesium chloride) was allowed to flow at a rate of 20 μL/min for 30 seconds, and regeneration was performed. For each concentration of antigen, binding of L1H2, binding of antigen, dissociation, and regeneration were repeated in order.

Binder	EC50 [1]	EC50 [2]	fold difference in binding ability against A-01 [1]	fold difference in binding ability against A-01 [2]	Kd [3]
B1	0.017 nM	0.017 nM			
B2	0.028 nM	0.029 nM	≤ 3 times	≤ 3 times	93.2 nM
B3	0.018 nM	0.019 nM			

Source: patent US20240182563A1 (GENOME, published 2024)
